Test results as given in paper PMC6771557 (Diabetes, Obesity & Metabolism, 2019).

Legend:
[1] = tested on: postprandial plasma glucose (PPG); assay: Postprandial plasma glucose after standardized breakfast, single s.c. dose, phase I crossover study; assay type: in vivo, Japanese people with type 2 diabetes mellitus; conditions: insulin glargine 5 U single s.c. dose; at 2 hours post-dose
Procedure: This was a phase I, single‐centre, randomized, open‐label, placebo‐controlled, four‐sequence, four‐period, four‐treatment crossover, single‐dose study.
Inclusion and exclusion criteria are provided in Appendix S1. […] There was a washout period of 7 to 14 days between dose administrations.
The secondary endpoints are described in Appendix S1.
The PD analyses were performed using the evaluable PD population. PPG–AUC0–2h was analysed using a linear mixed‐effects model with treatment group, sequence and treatment period as fixed effects, patient‐within‐sequence as a random effect, and baseline value as a covariate. The least squares (LS) mean differences were calculated between iGlarLixi groups and placebo, between the two iGlarLixi groups, and between iGlarLixi 5 U/5 μg and insulin glargine. The corresponding 95% confidence intervals and P values were calculated within the linear mixed‐effect model framework. P values < 0.05 were taken to indicate statistical significance. No adjustment for multiplicity was performed. […]
Secondary endpoints for PD included maximum postprandial plasma glucose (PPG) (PPG-Cmax), time of PPG-Cmax (PPG-tmax) and PPG-AUC0-5. In addition, serum insulin, serum C-peptide, and plasma glucagon concentrations were analyzed as secondary endpoints, and appropriate PD parameters such as AUCs were evaluated as applicable. […]

[2] = Safety: adverse events and hypoglycaemia; assay type: in vivo, Japanese people with type 2 diabetes mellitus; conditions: n=20
Procedure: Patient safety was monitored from adverse events (AEs) spontaneously reported by a patient or noted by an investigator, including hypoglycemic events. All AEs, regardless of seriousness or relationship to the study drug, were recorded in each patient’s records from the time the informed consent form was signed. Treatment emergent AEs (TEAEs) were defined as AEs that occurred or worsened or became serious during the treatment phase.
Evaluation of safety was based on the review of individual values and descriptive statistics. All safety analyses were performed in the safety population. Individual values were flagged for potentially clinically significant abnormalities (PCSAs) if appropriate.

In the case of insulin glargine, the “time of peak of mean plasma glucose concentration after breakfast start” value [1] is reported as “approximately 1 hour”, the “Patients with any TEAE” value ([2]; insulin glargine 5U single s.c. dose, up to 24 hours after injection) is reported as 0 n and the “Patients with any TEAE leading to permanent treatment discontinuation” value ([2]; insulin glargine 5U) is reported as 0 n. The “Patients with any severe TEAE” value ([2]; insulin glargine 5U) was 0 n and the “Patients with any treatment emergent SAE” value ([2]; insulin glargine 5U) was 0 n.
